Laboratory results: US20130029358A1, “IMMUNODOMINANT MHC DR52B RESTRICTED NY-ESO-1 EPITOPES, MHC CLASS II MONOMERS AND MULTIMERS, AND USES THEREOF” (LUDWIG INSTITUTE FOR CANCER RESEARCH LTD., priority 2010, published 2013)

Experiments:
DR52b = biological target: T1, DR52b (Homo sapiens, UniProt P01903+P79483); test: DR52b competition binding assay with biotin-labeled HA306-318 peptide; conditions: relative to untagged peptide
T1 construct: made in house; host or cells: D.Mel-2 (Drosophila) cells, pMT/BiP/V5-His A vector, secreted, purified on L243 anti-HLA-DR column
Protocol: (§1) FIG. 16. DR52b binding capacity of His-tagged and untagged ESO peptides and recognition by specific clones. (A) The capacity of His-tagged and untagged ESO peptides to bind to DR52b was assessed in a competition assay with a biotin-labeled HA-derived peptide. ESO and control peptides were incubated overnight at 37° C., at the indicated concentrations, with recombinant empty DR52b protein (5 μg) and biotin-labeled HA306-318 peptide (0.2 μM). The quantity of DR52b molecules containing the biotin-labeled peptide in each test-point was assessed by ELISA using anti-HLA-DR (clone L243) coated plates and alkaline phosphatase-labeled streptavidin. (B) ESO specific clones were incubated with DR52b^+ EBV-B cells and ESO peptides, at the indicated concentrations, and IFN-γ was measured by ELISA in 24 hrs culture supernatants. Results are shown for one clone representative of 3 clones tested.
Because our new approach involves the addition of a His-tag to the ESO peptides, it was important to address the effect of this modification on peptide binding to class II molecules and recognition by specific CD4^+ T cells. With this aim we assessed the relative efficiency of untagged and His-tagged ESO peptides to bind to DR52b using a previously described competition assay (13).

ESO specific clones = test: Recognition of His-tagged and untagged ESO peptides by specific clones with DR52b+ EBV-B cells (IFN-γ ELISA); format: cell-based, human; conditions: 24 hrs
Protocol: as §1, with “tested. DR52b^+ ESO-specific CD4^+ T cell clones or polyclonal cultures were stimulated in the absence or presence of ESO peptides (2 μM) or PMA (100 ng/ml) and ionomycin (1 μg/ml), as indicated, and cytokine production was assessed in a standard 4 hrs intracellular cytokine staining assay using mAb specific for IFN-γ, TNF-α, IL-2, IL-4, IL-10 (BD Biosciences) and IL-17 (eBiosciences), as previously described (9, 34). […]” for “tested.”

| effect of His-tag on peptide binding to DR52b (DR52b) | Substance | recognition by specific CD4+ T cells relative to untagged peptide (ESO specific clones) |
| --- | --- | --- |
| did not significantly modify | His-tagged ESO123-137: ESO123-137 extended at the N-terminus by 6 His residues and a linker (Ser-Gly-Ser-Gly) | moderately improved efficiency |
| did not significantly modify | His-tagged ESO119-143: ESO119-143 extended at the N-terminus by 6 His residues and a linker (Ser-Gly-Ser-Gly) |  |
